Experimental data taken from the supplement of paper PMC11875167.

Assay: observed amide hydrogen exchange rate constant kobs (stretched exponential fit, FD-normalized) (s^-1); higher = faster H/D exchange (less protection)
Conditions: pH 3 (pH read); temperature: 20 °C; D2O: 88%
Method in brief: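 Uptake curves were fitted to a stretched single exponential with β = 0.8, and kobs, the observed exchange rate constant, is the fitted rate. The data came from Jurkat tryptic peptides (LysC/trypsin, carbamidomethylated cysteines) labeled in 88% D2O at pHread 3, 20 °C, then quenched with 0.23% formic acid at 13 times from 18 to 93,600 s in processing triplicates. MS1 uptake from a Q-Exactive HF, analyzed in HDExaminer with no back-exchange correction, was normalized to full-deuteration controls (24 h, 37 °C).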

| Substance | observed amide hydrogen exchange rate constant kobs |
| --- | --- |
| AAGVNVEPFWPGLFAK | 0.000814 |
| AAIDWFDGK | 0.00155 |
| AAPEASGTPSSDAVSR | 0.00186 |
| AAQEEYVK | 0.00112 |
| AAVPSGASTGIYEALELRDNDK | 0.00126 |
| ADLINNLGTIAK | 0.000815 |
| AEDNADTLALVFEAPNQEK | 0.00102 |
| AELNEFLTR | 0.00113 |
| AFAMIIDK | 0.000626 |
| AFLASPEYVNLPINGNGK | 0.000869 |
| AGAHLQGGAK | 0.00372 |
| AGFAGDDAPR | 0.00357 |
| AGGFLMK | 0.00127 |
| AGKPVICATQMLESMIK | 0.00088 |
| AGLQFPVGR | 0.00107 |
| AGNLGGGVVTIER | 0.000802 |
| AHSSMVGVNLPQK | 0.000759 |
| AIADTGANVVVTGGK | 0.00115 |
| AIIIFVPVPQLK | 0.000266 |
| AILVDLEPGTMDSVR | 0.0012 |
| AIPQLQGYLR | 0.00091 |
| AIVAIENPADVSVISSR | 0.00184 |

| Substance | observed amide hydrogen exchange rate constant kobs |
| --- | --- |
| ALAAFLK | 0.000792 |
| ALAENSGVK | 0.00135 |
| ALELTGLK | 0.00115 |
| ALENDPDCR | 0.00109 |
| ALESPERPFLAILGGAK | 0.00092 |
| ALGQNPTNAEVLK | 0.000979 |
| ALLFIPR | 0.000533 |
| ALPFWNEEIVPQIK | 0.000814 |
| ALPGQLKPFETLLSQNQGGK | 0.0011 |
| ALTSELANAR | 0.00115 |
| ALTVPELTQQVFDAK | 0.000761 |
| ALWFQGR | 0.00126 |
| AMADPEVQQIMSDPAMR | 0.00104 |
| AMGIMNSFVNDIFER | 0.00109 |
| ANTFVAELK | 0.00102 |
| APEPHVEEDDDDELDSK | 0.0038 |
| APIIAVTR | 0.000401 |
| AQQELEEQTRR | 0.00236 |
| AQVARPGGDTIFGK | 0.00115 |
| ARFEELNADLFR | 0.00175 |
| ASILNTWISLK | 0.000492 |
| ATENDIANFFSPLNPIR | 0.000823 |

| Substance | observed amide hydrogen exchange rate constant kobs |
| --- | --- |
| ATFMVGSYGPRPEEYEFLTPVEEAPK | 0.00103 |
| ATISNDGATILK | 0.00117 |
| AVCMLSNTTAIAEAWAR | 0.000746 |
| AVDDGVNTFK | 0.00173 |
| AVDSQILPK | 0.000865 |
| AVELAANTK | 0.00114 |
| AVFPSIVGRPR | 0.000833 |
| AVFVDLEPTVIDEVR | 0.000889 |
| AVLVDLEPGTMDSVR | 0.00126 |
| AVTEQGAELSNEER | 0.00216 |
| AVTEQGHELSNEER | 0.00324 |
| AYHEQLSVAEITNACFEPANQMVK | 0.00146 |
| CAADLGLNK | 0.00234 |
| CILQDGR | 0.00103 |
| CPNLTHLNLSGNK | 0.00139 |
| DAGPLLISLK | 0.000622 |
| DAGTIAGLNVLR | 0.000899 |
| DALSDLALHFLNK | 0.00125 |
| DDGLFSGDPNWFPK | 0.00189 |
| DEFEGLFK | 0.00163 |
| DEILPTTPISEQK | 0.000626 |
| DIFQEIFDK | 0.00131 |

| Substance | observed amide hydrogen exchange rate constant kobs |
| --- | --- |
| DLADELALVDVIEDK | 0.00109 |
| DLPLLLFR | 0.000629 |
| DLSHIGDAVVISCAK | 0.00192 |
| DLSLEEIQK | 0.00108 |
| DLSTIEPLK | 0.000669 |
| DLTDYLMK | 0.00113 |
| DNLTLWTSDMQGDGEEQNK | 0.00177 |
| DNSTMGYMMAK | 0.00115 |
| DQIYDIFQK | 0.000729 |
| DQLIYNLLK | 0.000541 |
| DQQEAALVDMVNDGVEDLR | 0.00161 |
| DQVANSAFVER | 0.00108 |
| DRPFFAGLVK | 0.000655 |
| DRPFFPGLVK | 0.000625 |
| DRVTDALNATR | 0.000789 |
| DSPSVWAAVPGK | 0.000933 |
| DSTLIMQLLR | 0.000608 |
| DSYVGDEAQSK | 0.00207 |
| DTGIFLDLMHLK | 0.00141 |
| DVIEEYFK | 0.00131 |
| DVLFLK | 0.000617 |
| DVNAAIATIK | 0.000675 |

| Substance | observed amide hydrogen exchange rate constant kobs |
| --- | --- |
| DVNVNFEK | 0.00146 |
| DYFGAHTYELLAK | 0.00186 |
| DYFLFR | 0.00105 |
| DYNVTANSK | 0.00116 |
| EAEAAIYHLQLFEELRR | 0.00102 |
| EAFSLFDK | 0.0018 |
| EAILDIITSR | 0.0013 |
| EALQDVEDENQ | 0.0022 |
| EAMEDGEIDGNK | 0.0032 |
| EANNFLWPFK | 0.000958 |
| EDAANNYAR | 0.0026 |
| EDLHDMLASLGK | 0.00199 |
| EDQTEYLEER | 0.00222 |
| EDSQRPGAHLTVK | 0.00212 |
| EDSVKPGAHLTVK | 0.00181 |
| EESGKPGAHVTVK | 0.00233 |
| EFEPLLNWMK | 0.000734 |
| EFHLNESGDPSSK | 0.00132 |
| EGGLGPLNIPLLADVTR | 0.000844 |
| EGIPALDNFLDKL | 0.00119 |
| EGIPPDQQR | 0.00171 |
| EGLELPEDEEEK | 0.00262 |

| Substance | observed amide hydrogen exchange rate constant kobs |
| --- | --- |
| EGMNIVEAMER | 0.00123 |
| EGVHGGLINKK | 0.0019 |
| EIAEAYLGK | 0.00148 |
| EIIDLVLDR | 0.00103 |
| EILVGDVGQTVDDPYATFVK | 0.00102 |
| EIQTAVR | 0.001 |
| EISLWFKPEELVDYK | 0.000892 |
| EITALAPSTMK | 0.000944 |
| EIVLADVIDNDSWR | 0.00114 |
| EKPYFPIPEEYTFIQNVPLEDR | 0.000754 |
| ELGIWEPLAVK | 0.000742 |
| ELISNASDALDK | 0.00184 |
| ELISNSSDALDK | 0.00235 |
| ELLDLLYK | 0.000866 |
| ELLPEIR | 0.0016 |
| ELQEMDKDDESLIK | 0.00203 |
| ELSDFISYLQR | 0.000898 |
| EMLQQSK | 0.00166 |
| ENALVQMADGNQAQLAMSHLNGHK | 0.00127 |
| EQFLDGDGWTSR | 0.00231 |
| EQGVLSFWR | 0.00106 |
